# Source: paper doi:10.1101/2025.08.05.667158, “Antagonistic insulin mimetics lock the insulin receptor in an alternative apo-state” (bioRxiv, 2025)
# Positions of bridges follow the written chain, without caps; N, C: chain ends. Chains are numbered I, II in the order given. No end group written: not given here. adamantane scaffold = adamantane core scaffold to which the peptide C-termini are attached
# Target: T1, IR-A in cell membranes of human IM-9 lymphocytes (human (endogenous in IM-9), UniProt P06213-2 28-1370)
# T1 construct: human insulin receptor, isoform A (IR-A); Heterotetramer (alpha alpha' beta beta') of two protomers, each cut into an alpha and a beta subunit; written as one chain for the protomer; In the functional rows this molecule stands for human IR-A stably transfected in mouse embryonic fibroblasts; also called insulin receptor; source: endogenous, cell membranes of human IM-9 lymphocytes (ATCC)
# T1 sequence (P06213 other isoform, or with tags, fused parts or gaps): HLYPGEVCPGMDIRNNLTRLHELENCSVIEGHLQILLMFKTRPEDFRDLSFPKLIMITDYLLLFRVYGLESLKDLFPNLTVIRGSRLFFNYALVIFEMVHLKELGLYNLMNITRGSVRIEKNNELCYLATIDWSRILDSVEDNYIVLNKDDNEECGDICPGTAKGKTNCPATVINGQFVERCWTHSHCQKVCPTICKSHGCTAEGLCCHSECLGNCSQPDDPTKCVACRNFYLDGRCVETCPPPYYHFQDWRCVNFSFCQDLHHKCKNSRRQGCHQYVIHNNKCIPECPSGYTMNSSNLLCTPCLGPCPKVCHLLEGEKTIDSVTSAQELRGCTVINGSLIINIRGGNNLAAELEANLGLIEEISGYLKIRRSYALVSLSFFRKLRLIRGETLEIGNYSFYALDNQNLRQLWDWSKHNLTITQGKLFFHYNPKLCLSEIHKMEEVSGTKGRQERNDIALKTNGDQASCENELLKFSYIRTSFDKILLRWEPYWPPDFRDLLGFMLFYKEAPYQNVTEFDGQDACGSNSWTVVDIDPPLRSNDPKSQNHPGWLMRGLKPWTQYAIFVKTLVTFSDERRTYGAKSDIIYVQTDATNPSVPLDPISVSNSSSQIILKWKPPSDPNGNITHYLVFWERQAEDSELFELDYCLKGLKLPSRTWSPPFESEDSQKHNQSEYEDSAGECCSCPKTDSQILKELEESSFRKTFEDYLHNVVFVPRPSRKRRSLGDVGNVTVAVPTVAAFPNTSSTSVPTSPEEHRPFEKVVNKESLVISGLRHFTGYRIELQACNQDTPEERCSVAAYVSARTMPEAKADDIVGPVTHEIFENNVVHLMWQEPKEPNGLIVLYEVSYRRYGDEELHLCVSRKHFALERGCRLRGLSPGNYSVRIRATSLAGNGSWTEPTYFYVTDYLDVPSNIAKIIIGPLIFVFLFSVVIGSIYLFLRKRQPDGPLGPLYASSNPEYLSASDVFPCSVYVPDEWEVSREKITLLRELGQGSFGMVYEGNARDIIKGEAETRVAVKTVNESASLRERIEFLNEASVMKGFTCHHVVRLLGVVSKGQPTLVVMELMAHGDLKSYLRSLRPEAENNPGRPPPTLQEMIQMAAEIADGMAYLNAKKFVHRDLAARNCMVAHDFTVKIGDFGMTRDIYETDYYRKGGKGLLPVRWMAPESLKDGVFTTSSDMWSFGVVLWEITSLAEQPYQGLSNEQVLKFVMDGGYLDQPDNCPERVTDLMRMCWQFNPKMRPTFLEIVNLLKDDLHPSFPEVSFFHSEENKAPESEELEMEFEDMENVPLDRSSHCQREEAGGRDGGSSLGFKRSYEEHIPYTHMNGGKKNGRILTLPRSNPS
# Experiment: radioligand binding; competition with [125I]-monoiodotyrosyl-TyrA14-insulin for IR-A in cell membranes of human IM-9 lymphocytes; each curve in duplicate, Kd from at least three curves; non-linear regression for one site binding with ligand depletion
# Settings: one partner purified
row,Binder,Kd
1,"Ada insulin mimetic (designed binder, linker I:C-II:C via adamantane scaffold; not fully specified (C-terminus); also: mixture of two diastereoisomers, minimal Site-1 peptide, derived from the phage display peptides S597 and S661; minimal Site-2 peptide, derived from the phage display peptides S597 and S661; Two peptides joined through their C-termini by an adamantane scaffold; Ada is an inseparable mixture of two diastereoisomers; only one fits the cryo-EM density; also called antagonist; source: synthetic (solid-phase peptide synthesis)) peptide 1: Ac-FYDWFERQ peptide 2: SLEEEWAQ",395 nM
2,"Trim insulin mimetic (designed binder, linker I:C-II:C via trimesic acid scaffold; not fully specified (C-terminus); also: linker at chain A 8 at chain B 8 to a chain's C-terminus via trimesic acid scaffold, minimal Site-1 peptide, derived from the phage display peptides S597 and S661; minimal Site-2 peptide, derived from the phage display peptides S597 and S661; Two peptides joined through their C-termini by a trimesic acid scaffold; also called antagonist; source: synthetic (solid-phase peptide synthesis)) peptide 1: Ac-FYDWFERQ peptide 2: SLEEEWAQ",1260 nM
